Assay results as given in the MegaScale stability set (Tsuboyama et al. 2023).

B1: r11_951_TrROS_Hall (parent)
chain: KKKYVIKVYFEDTGKEVEIEAESKEEALEAAKRLAEELGLKIKKVEIYP

Variants of: B1
Assay: folding stability dG (cDNA display proteolysis); higher = more stable
Details: PBS, room temperature

Variant	folding stability dG [kcal/mol]
KKKYVIKVYFEDTGKVVEIEAESKEEALEAAKRLAEELGLKIKKVEIYP [E16V]	4.16
KKKYVIKVYFEDTGKMVEIEAESKEEALEAAKRLAEELGLKIKKVEIYP [E16M]	4.28
KKKYVIKVYFEDTGKPVEIEAESKEEALEAAKRLAEELGLKIKKVEIYP [E16P]	4.21
KKKYVIKVYFEDTGKSVEIEAESKEEALEAAKRLAEELGLKIKKVEIYP [E16S]	4.38
KKKYVIKVYFEDTGKRVEIEAESKEEALEAAKRLAEELGLKIKKVEIYP [E16R]	4.22
KKKYVIKVYFEDTGKCVEIEAESKEEALEAAKRLAEELGLKIKKVEIYP [E16C]	4.05
KKKYVIKVYFEDTGKWVEIEAESKEEALEAAKRLAEELGLKIKKVEIYP [E16W]	4.48
KKKYVIKVYFEDTGKTVEIEAESKEEALEAAKRLAEELGLKIKKVEIYP [E16T]	4.45
KKKYVIKVYFEDTGKYVEIEAESKEEALEAAKRLAEELGLKIKKVEIYP [E16Y]	4.45
KKKYVIKVYFEDTGKQVEIEAESKEEALEAAKRLAEELGLKIKKVEIYP [E16Q]	4.2
KKKYVIKVYFEDTGKGVEIEAESKEEALEAAKRLAEELGLKIKKVEIYP [E16G]	4.35
KKKYVIKVYFEDTGKLVEIEAESKEEALEAAKRLAEELGLKIKKVEIYP [E16L]	4.29
KKKYVIKVYFEDTGKFVEIEAESKEEALEAAKRLAEELGLKIKKVEIYP [E16F]	4.5
KKKYVIKVYFEDTGKKVEIEAESKEEALEAAKRLAEELGLKIKKVEIYP [E16K]	4.23
KKKYVIKVYFEDTGKAVEIEAESKEEALEAAKRLAEELGLKIKKVEIYP [E16A]	4.49
KKKYVIKVYFEDTGKDVEIEAESKEEALEAAKRLAEELGLKIKKVEIYP [E16D]	4.62
KKKYVIKVYFEDTGKNVEIEAESKEEALEAAKRLAEELGLKIKKVEIYP [E16N]	4.44
KKKYVIKVYFEDTGKIVEIEAESKEEALEAAKRLAEELGLKIKKVEIYP [E16I]	4.55
KKKYVIKVYFEDTGKHVEIEAESKEEALEAAKRLAEELGLKIKKVEIYP [E16H]	4.29
KKKYVIKVYFEDTGPEVEIEAESKEEALEAAKRLAEELGLKIKKVEIYP [K15P]	4.29
KKKYVIKVYFEDTGGEVEIEAESKEEALEAAKRLAEELGLKIKKVEIYP [K15G]	4.19
KKKYVIKVYFEDTGNEVEIEAESKEEALEAAKRLAEELGLKIKKVEIYP [K15N]	4.63

Variant	folding stability dG [kcal/mol]
KKKYVIKVYFEDTGCEVEIEAESKEEALEAAKRLAEELGLKIKKVEIYP [K15C]	3.19
KKKYVIKVYFEDTGLEVEIEAESKEEALEAAKRLAEELGLKIKKVEIYP [K15L]	4.28
KKKYVIKVYFEDTGVEVEIEAESKEEALEAAKRLAEELGLKIKKVEIYP [K15V]	4.37
KKKYVIKVYFEDTGHEVEIEAESKEEALEAAKRLAEELGLKIKKVEIYP [K15H]	4.54
KKKYVIKVYFEDTGFEVEIEAESKEEALEAAKRLAEELGLKIKKVEIYP [K15F]	4.38
KKKYVIKVYFEDTGMEVEIEAESKEEALEAAKRLAEELGLKIKKVEIYP [K15M]	4.16
KKKYVIKVYFEDTGIEVEIEAESKEEALEAAKRLAEELGLKIKKVEIYP [K15I]	4.22
KKKYVIKVYFEDTGSEVEIEAESKEEALEAAKRLAEELGLKIKKVEIYP [K15S]	4.28
KKKYVIKVYFEDTGAEVEIEAESKEEALEAAKRLAEELGLKIKKVEIYP [K15A]	4.22
KKKYVIKVYFEDTGTEVEIEAESKEEALEAAKRLAEELGLKIKKVEIYP [K15T]	4.5
KKKYVIKVYFEDTGQEVEIEAESKEEALEAAKRLAEELGLKIKKVEIYP [K15Q]	4.27
KKKYVIKVYFEDTGYEVEIEAESKEEALEAAKRLAEELGLKIKKVEIYP [K15Y]	4.52
KKKYVIKVYFEDTGREVEIEAESKEEALEAAKRLAEELGLKIKKVEIYP [K15R]	4.19
KKKYVIKVYFEDTGDEVEIEAESKEEALEAAKRLAEELGLKIKKVEIYP [K15D]	4.17
KKKYVIKVYFEDTGEEVEIEAESKEEALEAAKRLAEELGLKIKKVEIYP [K15E]	4.35
KKKYVIKVYFEDTGWEVEIEAESKEEALEAAKRLAEELGLKIKKVEIYP [K15W]	4.23
KKKYVIKVYFQDTGKEVEIEAESKEEALEAAKRLAEELGLKIKKVEIYP [E11Q]	4.79
KKKYVIKVYFVDTGKEVEIEAESKEEALEAAKRLAEELGLKIKKVEIYP [E11V]	4.83
KKKYVIKVYFTDTGKEVEIEAESKEEALEAAKRLAEELGLKIKKVEIYP [E11T]	4.48
KKKYVIKVYFSDTGKEVEIEAESKEEALEAAKRLAEELGLKIKKVEIYP [E11S]	4.63
KKKYVIKVYFRDTGKEVEIEAESKEEALEAAKRLAEELGLKIKKVEIYP [E11R]	4.82
KKKYVIKVYFYDTGKEVEIEAESKEEALEAAKRLAEELGLKIKKVEIYP [E11Y]	4.83

Variant	folding stability dG [kcal/mol]
KKKYVIKVYFPDTGKEVEIEAESKEEALEAAKRLAEELGLKIKKVEIYP [E11P]	3.62
KKKYVIKVYFEDGGKEVEIEAESKEEALEAAKRLAEELGLKIKKVEIYP [T13G]	4.52
KKKYVIKVYFEDRGKEVEIEAESKEEALEAAKRLAEELGLKIKKVEIYP [T13R]	4.66
KKKYVIKVYFEDVGKEVEIEAESKEEALEAAKRLAEELGLKIKKVEIYP [T13V]	4.4
KKKYVIKVYFEDYGKEVEIEAESKEEALEAAKRLAEELGLKIKKVEIYP [T13Y]	4.47
KKKYVIKVYFEDKGKEVEIEAESKEEALEAAKRLAEELGLKIKKVEIYP [T13K]	4.48
KKKYVIKVYFEDWGKEVEIEAESKEEALEAAKRLAEELGLKIKKVEIYP [T13W]	4.28
KKKYVIKVYFEDLGKEVEIEAESKEEALEAAKRLAEELGLKIKKVEIYP [T13L]	4.29
KKKYVIKVYFEDHGKEVEIEAESKEEALEAAKRLAEELGLKIKKVEIYP [T13H]	4.33
KKKYVIKVYFEDDGKEVEIEAESKEEALEAAKRLAEELGLKIKKVEIYP [T13D]	4.11
KKKYVIKVYFEDEGKEVEIEAESKEEALEAAKRLAEELGLKIKKVEIYP [T13E]	4.4
KKKYVIKVYFEDPGKEVEIEAESKEEALEAAKRLAEELGLKIKKVEIYP [T13P]	4.48
KKKYVIKVYFEDSGKEVEIEAESKEEALEAAKRLAEELGLKIKKVEIYP [T13S]	4.55
KKKYVIKVYFEDFGKEVEIEAESKEEALEAAKRLAEELGLKIKKVEIYP [T13F]	4.36
KKKYVIKVYFEDMGKEVEIEAESKEEALEAAKRLAEELGLKIKKVEIYP [T13M]	4.35
KKKYVIKVYFEDNGKEVEIEAESKEEALEAAKRLAEELGLKIKKVEIYP [T13N]	4.58
KKKYVIKVYFEDAGKEVEIEAESKEEALEAAKRLAEELGLKIKKVEIYP [T13A]	4.42
KKKYVIKVYFEDCGKEVEIEAESKEEALEAAKRLAEELGLKIKKVEIYP [T13C]	3.6
KKKYVIKVYFEDQGKEVEIEAESKEEALEAAKRLAEELGLKIKKVEIYP [T13Q]	4.32
KKKYVIKVYFEDIGKEVEIEAESKEEALEAAKRLAEELGLKIKKVEIYP [T13I]	4.41
KKKYVIKVYFEDTGKEDEIEAESKEEALEAAKRLAEELGLKIKKVEIYP [V17D]	3.74
KKKYVIKVYFEDTGKEAEIEAESKEEALEAAKRLAEELGLKIKKVEIYP [V17A]	4.23

Variant	folding stability dG [kcal/mol]
KKKYVIKVYFEDTGKECEIEAESKEEALEAAKRLAEELGLKIKKVEIYP [V17C]	4.25
KKKYVIKVYFEDTGKEEEIEAESKEEALEAAKRLAEELGLKIKKVEIYP [V17E]	4.29
KKKYVIKVYFELTGKEVEIEAESKEEALEAAKRLAEELGLKIKKVEIYP [D12L]	4.59
KKKYVIKVYFEVTGKEVEIEAESKEEALEAAKRLAEELGLKIKKVEIYP [D12V]	4.34
KKKYVIKVYFEITGKEVEIEAESKEEALEAAKRLAEELGLKIKKVEIYP [D12I]	4.66
KKKYVIKVYFEWTGKEVEIEAESKEEALEAAKRLAEELGLKIKKVEIYP [D12W]	4.75
KKKYVIKVYFESTGKEVEIEAESKEEALEAAKRLAEELGLKIKKVEIYP [D12S]	4.38
KKKYVIKVYFECTGKEVEIEAESKEEALEAAKRLAEELGLKIKKVEIYP [D12C]	4.38
KKKYVIKVYFEATGKEVEIEAESKEEALEAAKRLAEELGLKIKKVEIYP [D12A]	4.41
KKKYVIKVYFERTGKEVEIEAESKEEALEAAKRLAEELGLKIKKVEIYP [D12R]	4.79
KKKYVIKVYFEHTGKEVEIEAESKEEALEAAKRLAEELGLKIKKVEIYP [D12H]	4.49
KKKYVIKVYFENTGKEVEIEAESKEEALEAAKRLAEELGLKIKKVEIYP [D12N]	4.42
KKKYVIKVYFEPTGKEVEIEAESKEEALEAAKRLAEELGLKIKKVEIYP [D12P]	4.35
KKKYVIKVYFEKTGKEVEIEAESKEEALEAAKRLAEELGLKIKKVEIYP [D12K]	4.62
KKKYVIKVYFEMTGKEVEIEAESKEEALEAAKRLAEELGLKIKKVEIYP [D12M]	4.55
KKKYVIKVYFEFTGKEVEIEAESKEEALEAAKRLAEELGLKIKKVEIYP [D12F]	4.64
KKKYVIKVYFEQTGKEVEIEAESKEEALEAAKRLAEELGLKIKKVEIYP [D12Q]	4.38
KKKYVIKVYFEETGKEVEIEAESKEEALEAAKRLAEELGLKIKKVEIYP [D12E]	4.31
KKKYVIKVYFEGTGKEVEIEAESKEEALEAAKRLAEELGLKIKKVEIYP [D12G]	4.54
KKKYVIKVYFEYTGKEVEIEAESKEEALEAAKRLAEELGLKIKKVEIYP [D12Y]	4.66
KKKYVIKVYFETTGKEVEIEAESKEEALEAAKRLAEELGLKIKKVEIYP [D12T]	4.5
KKKYVIKVYFEDTQKEVEIEAESKEEALEAAKRLAEELGLKIKKVEIYP [G14Q]	4.39

Variant	folding stability dG [kcal/mol]
KKKYVIKVYFEDTIKEVEIEAESKEEALEAAKRLAEELGLKIKKVEIYP [G14I]	4.58
KKKYVIKVYFEDTLKEVEIEAESKEEALEAAKRLAEELGLKIKKVEIYP [G14L]	4.25
KKKYVIKVYFEDTDKEVEIEAESKEEALEAAKRLAEELGLKIKKVEIYP [G14D]	4.37
KKKYVIKVYFEDTWKEVEIEAESKEEALEAAKRLAEELGLKIKKVEIYP [G14W]	4.61
KKKYVIKVYFEDTKKEVEIEAESKEEALEAAKRLAEELGLKIKKVEIYP [G14K]	4.37
KKKYVIKVYFEDTEKEVEIEAESKEEALEAAKRLAEELGLKIKKVEIYP [G14E]	4.3
KKKYVIKVYFEDTVKEVEIEAESKEEALEAAKRLAEELGLKIKKVEIYP [G14V]	4.62
KKKYVIKVYFEDTCKEVEIEAESKEEALEAAKRLAEELGLKIKKVEIYP [G14C]	4.36
KKKYVIKVYFEDTTKEVEIEAESKEEALEAAKRLAEELGLKIKKVEIYP [G14T]	4.41
KKKYVIKVYFEDTPKEVEIEAESKEEALEAAKRLAEELGLKIKKVEIYP [G14P]	4.26
KKKYVIKVYFEDTMKEVEIEAESKEEALEAAKRLAEELGLKIKKVEIYP [G14M]	4.29
KKKYVIKVYFEDTYKEVEIEAESKEEALEAAKRLAEELGLKIKKVEIYP [G14Y]	4.5
KKKYVIKVYFEDTFKEVEIEAESKEEALEAAKRLAEELGLKIKKVEIYP [G14F]	4.73
KKKYVIKVYFEDTSKEVEIEAESKEEALEAAKRLAEELGLKIKKVEIYP [G14S]	4.66
KKKYVIKVYFEDTHKEVEIEAESKEEALEAAKRLAEELGLKIKKVEIYP [G14H]	4.27
KKKYVIKVYFEDTAKEVEIEAESKEEALEAAKRLAEELGLKIKKVEIYP [G14A]	4.34
KKKYVIKVYFEDTNKEVEIEAESKEEALEAAKRLAEELGLKIKKVEIYP [G14N]	4.43
KKKYVIKVYFEDTRKEVEIEAESKEEALEAAKRLAEELGLKIKKVEIYP [G14R]	4.05
